Consider five molecules from patent US20110038881A1, “PROGNOSTIC ASSAY FOR DETERMINING T CELL RESPONSE TO HLA ANTIGENS AND USE THEREOF IN FIELD OF TISSUE TRANSPLANTATION” (priority 2007, published 2011).

Test [1] deals with HLA-DRB4*0101 (human). The test is described as follows: competition. To be noted: modification not given.
The next test deals with HLA-DRB1*0101 (human). The test is described as follows: competition binding. To be noted: modification not given.
A further test has as its target HLA-DRB1*0301 (human). The test is described as follows: competition binding. Conditions: modification not given.
For a further test, the target named is HLA-DRB1*0401 (human). Nature of the test: competition binding. To be noted: modification not given.
A further test concerns the target HLA-DRB1*0701 (human). The test is described as follows: competition binding. To be noted: modification not given.
In another test the target is HLA-DRB1*1101 (human). Nature of the test: competition binding. To be noted: modification not given.
Test [2] concerns the target HLA-DRB1*1301 (human). Nature of the test: competition binding. Conditions: modification not given.
A further test addresses HLA-DRB1*1501 (human). Nature of the test: competition binding. Conditions: modification not given.
Another test concerns the target HLA-DRB3*0101 (human). The test is described as follows: competition binding. Conditions: modification not given.
The target in test [3] is HLA-DRB4*0101 (human). The test is described as follows: competition binding. To be noted: modification not given.
The target in another test is HLA-DRB5*0101 (human). The test is described as follows: competition binding. To be noted: modification not given.
In test [4] the target is T1, HLA-DRB1*1301 (human).
T1 chain 1: not shown
T1 chain 2: not shown
Nature of the test: competition assay on purified, immobilised HLA-DR against the biotinylated reference peptide, pH 4.5.

Consider HAVSDHEATLRCWAL [p39], for which, in the test with HLA-DRB4*0101 (human) [1], the IC50 (in general, the concentration that inhibits the measured activity by half) stood at 0.008 µM. This counts as single-digit nanomolar.
As to SQRMEPRAPWIEQEGP [p9], the IC50 was 10.8 µM with HLA-DRB1*0101 (human); above 100 µM with HLA-DRB1*0301 (human); above 100 µM in the test with HLA-DRB1*0401 (human); 83.7 µM in the test with HLA-DRB1*0701 (human); 15.5 µM with HLA-DRB1*1101 (human); 60 µM with HLA-DRB1*1301 (human) [2]. Besides, the IC50 is 33.2 µM with HLA-DRB1*1501 (human), above 100 µM with HLA-DRB3*0101 (human), above 100 µM with HLA-DRB4*0101 (human) [3] and 67.1 µM with HLA-DRB5*0101 (human).
In the case of AEITLTWQRDGEDQT [p42], the IC50 with HLA-DRB1*0101 (human) is 1.34 µM; with HLA-DRB1*0301 (human) it was above 100 µM; with HLA-DRB1*0401 (human), above 100 µM; with HLA-DRB1*0701 (human) it was above 100 µM; in the test with HLA-DRB1*1101 (human) it was 6 µM; with HLA-DRB1*1301 (human) [2], above 100 µM. The IC50 is 18.8 µM in the test with HLA-DRB1*1501 (human), 30 µM with HLA-DRB3*0101 (human), 4.58 µM with HLA-DRB4*0101 (human) [3] and 4.69 µM in the test with HLA-DRB5*0101 (human).
With TERVRLVTRHIYNREE (modifications not checked) [reference peptide B1 21-36], the IC50 with HLA-DRB1*1301 (human) [4] is 0.131 µM. In other words, the sub-micromolar range.
In the case of HSMRYFFTSVSRPGR [p1*], the IC50 with HLA-DRB1*0101 (human) is 0.003 µM; with HLA-DRB1*0301 (human), 7.35 µM; in the test with HLA-DRB1*0401 (human), 0.013 µM; in the test with HLA-DRB1*0701 (human), 0.038 µM; in the test with HLA-DRB1*1101 (human), 0.002 µM; in the test with HLA-DRB1*1301 (human) [2], 0.365 µM. The IC50 was 0.509 µM with HLA-DRB1*1501 (human), above 100 µM with HLA-DRB3*0101 (human), 0.193 µM in the test with HLA-DRB4*0101 (human) [3] and 0.004 µM with HLA-DRB5*0101 (human).
